Experimental findings from the DeepSol protein solubility set are described below.

The data set in a line: soluble on expression in E. coli; label from the status in PepcDB or PDB records.
“MASQSQGIQQLLQAEKRAKDKLEEAKKRKNKRLRQAKEEATADIDQYRLKREADFRRIQTSVMGSQGNLAVKIEEQTVEKIQFYSSSYNKYKEGVLKELLDLAYNIKPELHTNYKYKI”: the “soluble on expression in E. coli” value is “not soluble”. The result for “MSGQKCSAYTDTMGTCTICSIFAPHSQLFICRHEGCKYALKQSSSIMTPAMFYRKEKVICGKCAFVGPHKMHKDFVSKAQKLAFKIASQEIGVRLQMEFDVLSELHEDNPVDYAIILSGHEKLEKIDVIKYLSQSKTIVEWNLRQRQLNEAIQFIKFNRIEGYHRVKELANKMLDAFYDANATIERDSENGSPQSDDDHLSDVSHECQGSSRSSISSKKSSIHSTSTTGTVILNQNPDNALSCSEVSGGDELKNKSSTNEGYTESMTETVITISRRFEMCIRRESPEDAVSRIADYLDDRIESNDQKKAIAEYMERNYSIKWPRQFQ” reads “not soluble”; that for “MQYIKIHALDNVAVALADLAEGTEVSVDNQTVTLRQDVARGHKFALTDIAKGANVIKYGLPIGYALADIAAGEHVHAHNTRTNLSDLDQYRYQPDFQDLPAQAADREVQIYRRANGDVGVRNELWILPTVGCVNGIARQIQNRFLKETNNAEGTDGVFLFSHTYGCSQLGDDHINTRTMLQNMVRHPNAGAVLVIGLGCENNQVAAFRETLGDIDPERVHFMICQQQDDEIEAGIAHLHQLYSVMRNDKREPGKLSELKFGLECGGSDGLSGITANPMLGRFSDYVIANGGTTVLTEVPEMFGAEQLLMDHCRDEATFEKLVTMVNDFKQYFIAHDQPIYENPSPGNKAGGITTLEDKSLGCTQKAGSSVVVDVLRYGERLKTPGLNLLSAPGNDAVATSALAGAGCHMVLFSTGRGTPYGGFVPTVKIATNSELAAKKKHWIDFDAGQLIHGKAMPQLLEEFIDTIVEFANGKQTCNERNDFRELAIFKSGVTL”, “not soluble”; that for “MPPLTHQSLKCVIKHLEANARIQLSQRCPSLHKTEKLIPLTIYNLELDQCSVKINNTDYSLTLTSNNFSSPFDLDQFGAIDLDEVDVDGNDVLVDNRSFKEEKNRLLRMRIEIRKMPDGVEKQEATAAVVALEQLEDNRWLRREPTSSSMMNLSINSQFIIFRGEKLCYNMKLHQAFRYLVAKLFSGRRCPIQVKKLSVECKGILRVPADLRFKVSHLEILGSGVDKIVEAFKPLIGRIQTITVNDDFNISHPIFQTALILKNPNENLFGAASASNVRVENNEQFSSLSERVVDLIRIWQSHGHKIGTIWNFSMRSQEQALDSIMYLRRQLGASFSGHKNLSQYGRSAAISLNNSDEIYVSFKQQQIKVWNLKVVVRRKRL”, “not soluble”. The result for “TLTVNGPPIISSTQTQHALHGEKGQIKCFIRSTPPPDRIAWSWKENVLESGTSGRYTVETISTEEGVISTLTISNIVRADFQTIYNCTAWNSFGSDTEIIRLKEQGSEM” reads “soluble”; that for “MELTTKLVGTCSALDRLYQSGSAKCLFPRNSRAGLEAVLLNTAGGVTGGDRLSFSAQVRAGTRLSVTTQACERAYRAQPGETGQVRNHLSVATGARMNWLPQETILYDGSSLDRRLSVEIEPGASLLMVEPLVFGRIEMGESLNDARFCDRIEITRRGRPIFLDATRLQGGIAAHLAKPFIANGAGAMALLVYLAENAEAVLPRLRQMLPECAGASLIGEDLLVMRVLAADSFLLRQSLLPALRLLNNNEIPRCWTILEHHHHHH”, “not soluble”. Consider “MSLQQGINKPIFQQAKLFRYQLPFKIPIVFKGIKLTAREGVILQVQNDKGEFNFAEIAPLPGFSKETLQQATAQIIALLNTPPLNSQSDILLYPSVAFALDCILHNIPISELFKTAESIPLLQGDNHSVLKQYLQMNKPNSVKLKIGRQSVAKDITLFSALSALNNNLLIRCDANQSWTFAQADLFFANINTQLIDYIEEPTASLSDNINLAERYEVQLALDETLQQKQFQYQHHRCFKALILKPTLIGSFERLNYFIKTAKKFHLSVSISSSFESPLGLSQLAFMASQWSKEVDISCGLDTLKFFESAILNKNSDKKLDNKTPINQQVKHLECLWTSNEGHHHHHH”, for which the “soluble on expression in E. coli” value is “soluble”. “MGSDKIHHHHHHMNKDIPVLIFSDKLNINGDYPIIKIINEQSLPYILKHEIGGLKDWFKSRVIPTNRNHLEKLIESLQFEKKPTALDYLKLNNGFSLNDSYWIKPLDISSMYPKDLCWDKYNLYDNKFEEALGLVTFFGNNTSLGGTVNTPKVSSPELTTQGVMNKAWRRTDNKLLLYKRGNIGAANLDKEHFSESIASEIGKILGLNCIPYWTDKWHNQNCSVCEIFTNKDKGYLPFRYFLEAIEPNRKKWGFANVIEWIPKEFKQDFLDMIVFDYIIENRDRHLGNFGFIIDNNTQELLSFAPLFDQGYSLMANALEEDFNKDLKEYSESHPSFVLENKDLAKYVIERNKQRYKGFTKTLRLKIDDINWFNCPNWYKEGIKKLIFTRCEVINSI”: the “soluble on expression in E. coli” value is given as “not soluble”.

Turning to “SVFADQVGVQVIGVNDFHGALDNTGTANMPDGKVANAGTAAQLDAYMDDAQKDFKQTNPNGESIRVQAGDMVGASPANSGLLQDEPTVKNFNAMNVEYGTLGNHEFDEGLAEYNRIVTGKAPAPDSNINNITKSYPHEAAKQEIVVANVIDKVNKQIPYNWKPYAIKNIPVNNKSVNVGFIGIVTKDIPNLVLRKNYEQYEFLDEAETIVKYAKELQAKNVKAIVVLAHVPATSKNDIAEGEAAEMMKKVNQLFPENSVDIVFAGHNHQYTNGLVGKTRIVQALSQGKAYADVRGVLDTDTQDFIETPSAKVIAVAPGKKTGSADIQAIVDQANTIVKQVTEA”, the “soluble on expression in E. coli” value is reported as “not soluble”. In the case of “MAKTGMYVGLDIGTTSVKVVVAEYIEGQMNIIGVGNAKSDGLNRGIVVDIDQTVQAIQRAVRQAEEKAGIQIKSVNVGLPANLLEVESCQGMIAVSSESKEITDEDVRNVASAALVRSTPPERQIVAILPQDFTVDGFEGIKDPRGMLGVRMEMFGVVYTGPKTIIHNIRKCVEKAGLGINELVITPLALTETILTDGEKDFGTIVIDMGGGQTTTSVIHDKQLKFTHVNQEGGEFITKDISIVLNTSFNNAEALKINYGDAYPERTSANEEFPVDVIGKSEPVRVDERYLSEIIEARVEQILRKSKEVLDEIDAFELPGGVVLTGGAASMPGIVDLAQEIFEANVKLYVPNHMGLRNPVFANVISIVEYSAQLNDIYHIAKYAIPGEKSKPAQSVAVQQEVRYDTYAEQPQEEYEEFNERESGEKVTGKIKDFFSNIFD”, the “soluble on expression in E. coli” value is on record as “not soluble”. Under “AAPTATVTPSSGLSDGTVVKVAGAGLQAGTAYWVAQSAWVDTGVYASNPADISSVTADANGSASTSLTVRRSFEGFLWDGTRWGTVDCTTAACHVTLRDALSNGPEGVAISF” stands “soluble”; under “KKNNVYPELEAFIGKEIIFSDKNFNTVGNKAFKDQFLLISYVDSGNCTPCSLEKMQYMKTNKRRLLDTHTGVLMIVHEKDTFTVNEVFRQMHVSYPIFFDSLGCFKKENGIFDNPLYQDFVIDRSNKVVWLGNPLRNKQSWQQYEKAISMLMD”, “not soluble”; under “MPTETLSSVFVLVVLLPTSGLLPRTEAAFVASSSIEYCERSSNGEPFPCEKKMVVGLSVGSEQTIEAEEVVLLREAVDKTGDEKGKRVEFEPIRLVTTKSPVQYRYPIYYIRNFNAKPYEQRLRTSASSWCDDSSNPGSATCGVARDRRGDVIPYSQGFCCLCGACALSGICNPTSRSVGTCSVTGDTGMASCLRFSDLWYGGYTIGRGVVWYELQVKLSSGNNSTGGGSTGSKEFTMSLGPDKLTATSTEFGASARLIGDFAPPEMPLDLSGKMLFIPSEPRGHERVGAGYNEWIIVDTHLVSIRGTECNKVGVSYEGFATQGSRCDAYPGACLANQLEDYRDRDLEAETKGQQGKYMARFFAPFGFDPLANASAPAVAYQVTGTLSTMVTITISADKLNFVLSVSSGVVVGATVSGKVVHSYSRGSTITVTVLNTGDIEAQYTVVVGECTVNVQPMVAQTVYIPLQGSAQRRFTLIVQDSIEGEAKCNATLRNARGDVVDTRAISFGVKALKPSNGSQGGSTFENGRYSEEAKGESQCQQCSWFNLLCFLRHRCWWQPLVYVLPSVTLLMLLRRFLESQSRSRPRPQLHPDEHELRNTGAISSCHLPRAPYVNTVH”, “not soluble”. “MQYFDVARILTTHGLHGEVKVNVITDFPEDRFAEGMQLELKDDIDRVLTIKKSRPFKQFWLLQFDEITDIDEAEKLRGKILVISEKDRGELPDGVYYYKDIFDCGVIDNETGKRLGKITDIQSPGANDIWLVHEDNGKEYWIPNIADVVKKIDIADKKVYVELMEGLRDEDLEHHHHHH”: the “soluble on expression in E. coli” value is listed as “soluble”.

For the sequence “GPGSMEGPPPVCFRQCSFTYGAEPSTLHISQQCFSDYVWILVTEDDTCVPGVVLRFDPHDAGPCVGCESLNNLPSLPCEYLLGVRDHALTNILSSAIAHAIQSVGEQRPLLLCVSAAKTAKRLQTTEERMSFVRMVREKVVALAKGETC”, the “soluble on expression in E. coli” value is given as “not soluble”. The result for “GPGSMPSKRATRVQKLHEGTGDDNLPVFSIFIEKEGEGQYGRIDIEIFVNKVPKSCEIFLHSCPAALTGDKRVSKPSLVRQHRFLRLTNEGLQVGERPVSRLVSLSDIENEIGRVNHGIGVVSLCRSSNTFDESFFFCLTDNRTELESLDKRHTAFGRVVYGLELLFLLRDALIPYVKEGCVIEGSPYAISDILPKAAT” reads “soluble”.

“MRQRIAVVGGGPAGLAFARVMHRHDRSVTVLERDPAPDARPPGGTLDLHEGLGRLAMDKAGLSAEFEALSRPEGQAMRILDTDGTVLRDWRPDPAERANPEIDRGQLRDLLLGPLDVRWGQGVTKVVPGGRDGVLVHFEDGRQEAFDLVVGADGAWSRTRPAVSPVTPHYTGVTSVETSLDDVDTRHPDLARLVGDGSVAVYGVNRAVVAQRNSGGHVKVHAQFRAPLDWHAHLDLGDAEAVRSRLLTLFDGWTAPVLDLLRHGTGFVHRPLHVLPVSHTWTHVPGVTLLGDAAHLMPPLGAGANLALLEGAELAESLADGSADPDDAVRAFEERMWARAGRWAKITAAGLERLVSPDPAAALAVFDQVQPSRLEHHHHHH”: the “soluble on expression in E. coli” value is on record as “not soluble”. “GSVYNTKKVGKRLNIQLKKGTEGLGFSITSRDVTIGGSAPIYVKNILPRGAAIQDGRLKAGDRLIEVNGVDLAGKSQEEVVSLLRSTKMEGTVSLLVFRQEEAFHPREMNA”: the “soluble on expression in E. coli” value is “soluble”. Consider “MGSDKIHHHHHHMRLTTKGRFAVTAMIDLALREHSGPVALAAISSRQQISLSYLEQLFGKLRRHELVESTRGPGGGYSLGRKAEEITVADIIVAVDEPIDATGCGGKENCMGEDSGRCMTHDLWASLNTKMIEFLDSISLRKLVDDQLAKGVSIEEAPVKRAISSQPVVKPIKITAPNSVFALGSSFSK”, for which the “soluble on expression in E. coli” value was “not soluble”. As to “MSLSASQTSDVPTLLVKIFGKDRPGITAGLFDTLAAYSVDVVDIEQVVTRGRIVLCALVTEPPRGLEGDLRATVHSWAESLKLQAEIISGIGDNRPRGFGRSLVTVLGHPLTAEATAAIAARITESGSNIDRIFRLAKYPVTAVEFAVSGVETEPLRTALATEAAALGVDIAVVAAGLHRRAQRLVVMDVDSTLIQDEVIELFAAHAGCEDEVAEVTAAAMRGELDFEQSLHARVALLAGLDASVVDKVRAEVRLTPGARTLIRTLKRLGYQVGVVSGGFTQVTDALQEQLGLDFAQANTLEIVDGRLTGRVTGEIVDRAGKARLLRRFAAAAGVPLSQTVAIGDGANDLDMLNAAGLGVAFNAKPVVREAAHTAVNVPFLDTVLYLLGITREEVEAADTLADDLGDGPGREGHHHHHH”, the “soluble on expression in E. coli” value was “soluble”. The result for “MNTFTACVERGENWWVAQLVEDPGVIVQARRLDQIQEEIRDALALFPKLTDSPETASVHLDLVGEIEQKAQATRDQLAAIRECEAHELANMSQHARRLQAAGVLRDSMQIASGSQAARS” reads “not soluble”.
